Measured values from patent US20080182978A1, “ANTI-NGF ANTIBODIES AND METHODS USING SAME” (RINAT NEUROSCIENCE CORP, priority 2002, published 2008).

How the values were obtained:
[1] = target: human NGF (Homo sapiens, UniProt P01138); assay: BIAcore affinity determination assay (kon, koff, KD of purified Fabs); assay type: binding; details: higher affinity than 911
Description: Affinities of anti-NGF Fabs and monoclonal antibodies were determined using the BIAcore300™ surface plasmon resonance (SPR) system (BIAcore, INC, Piscaway N.J.). CM5 chips were activated with N-ethyl-N′-(3-dimethylaminopropyl)-carbodimide hydrochloride (EDC) and N-hydroxysuccinimide (NHS) according to the supplier's instructions. Human NGF was diluted into 10 mM sodium acetate pH 4.0 and injected over the activated chip at a concentration of 0.005 mg/mL. Using variable flow time across the individual chip channels, two ranges of antigen density were achieved: 100-200 response units (RU) for detailed kinetic studies and 500-600 RU for screening assays. The chip was blocked with ethanolamine. […] HBS-EP buffer (0.01M HEPES, pH 7.4, 0.15 NaCl, 3 mM EDTA, 0.005% Surfactant […]) was used as running buffer for all the BIAcore assays.
Serial dilutions (0.1-10× estimated KD) of purified Fab samples were injected for 1 min at 100 μL/min and dissociation times of up to 2 h were allowed. The concentrations of the Fab proteins were determined by ELISA and/or SDS-PAGE electrophoresis using as a standard a Fab of known concentration (as determined by amino acid analysis). Kinetic association rates (kon) and dissociation rates (koff) were obtained simultaneously by fitting the data to a 1:1 Langmuir binding model (Karlsson, R. Roos, H. Fagerstam, L. Petersson, B. (1994). Methods Enzymology 6. 99-110) using the BIAevaluation program. Equilibrium dissociation constant (KD) values were calculated as koff/kon.
The binding affinities to human NGF of Fabs E3 and 3C were measured using BIAcore analysis according to the manufacturer's instructions and as described above, except that 100 RU NGF was used on chip to prevent a rebinding effect. Briefly, several concentrations of antibodies (Fabs) were injected for 2 minutes onto a CM5 chip with 100 RU of immobilized human NGF on it, and permitted to dissociate for 1800 seconds. Mouse antibody 911 (Fab) was analyzed as a control. Data was analyzed using BIAevaluation software following the manufacturer's instructions. E3 bound human NGF with a KD of approximately 0.07 nM (and with a kon of about 6.0e5 M-1s-1, and a koff of about 4.2e-5s-1).

[2] = system: moderate to severe pain from osteoarthritis of the knee; assay: Clinical study, osteoarthritis of the knee: WOMAC 3.1 index; assay type: in vivo, human; details: day 1 to day 28
From the text: Adult males and females (ages between 35 to 65) who were experiencing moderate-to-severe pain from osteoarthritis of the knee, but were in otherwise overall good health were enrolled in the study. During the screening period, patients were required to discontinue arthritis medications such as NSAIDs, cyclooxygenase type-2 (COX-2) inhibitors, and opiates at least 14 days prior to administration of anti-NGF antibody E3. Patients were allowed to use rescue medications of acetaminophen or ibuprofen with some restrictions based on laboratory findings or past medical history. […] Thirty-four patients were admitted to the study and assessed as inpatients for on Study Days -1, 1 and 2. […] The volume for each patient was calculated based on the subject's Day -1 weight and assigned dose level, ranging from 3-6 cc for cohort 1, 10-20 cc for cohort 2, 30-60 cc for cohort 3, and 100 cc for cohort 4 and cohort 5. […] Each domain was scored by determining the means of the VAS scores of the component questions. The total WOMAC 3.1TM was scored by determining the means of the scores from each of the 3 domains. […] Outcome was assessed as change from baseline (pain level during screening period), expressed as pain intensity difference (PID) or summed pain intensity difference (SPID) for different dose levels. […]

Chain of human NGF (P01138 122-241): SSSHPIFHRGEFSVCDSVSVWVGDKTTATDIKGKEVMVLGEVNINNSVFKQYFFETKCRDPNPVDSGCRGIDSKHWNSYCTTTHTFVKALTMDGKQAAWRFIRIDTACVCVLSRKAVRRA

- binding affinity to human NGF relative to parent mouse antibody 911 [1]: approximately 50 fold
B1: E3: humanized, affinity matured anti-NGF antagonist antibody; variable regions SEQ ID NO:1 and 2; human IgG2a (A330P331 to S330S331), kappa (antibody, V domains shown)
VH: QVQLQESGPGLVKPSETLSLTCTVSGFSLIGYDLNWIRQPPGKGLEWIGIIWGDGTTDYNSAVKSRVTISKDTSKNQFSLKLSSVTAADTAVYYCARGGYWYATSYYFDYWGQGTLVTVS
VL: DIQMTQSPSSLSASVGDRVTITCRASQSISNNLNWYQQKPGKAPKLLIYYTSRFHSGVPSRFSGSGSGTDFTFTISSLQPEDIATYYCQQEHTLPYTFGQGTKLEIKRT
modifications: human IgG2a constant (A330S/P331S) and kappa constant missing
- WOMAC pain, physical function and stiffness score ([2]; 100 μg/kg): reduced significantly
- WOMAC score ([2]; single i.v. dose): reduced WOMAC score
